Reference: patent publication US20100129315A1

Biological target: human MN protein, entire extra-cellular domain with a C-terminal histag, expressed in HKB-11 cells (human), Q16790
Assay: SPR (BIAcore 3000), IgG captured on anti-human IgG Fc, soluble MN as analyte, 1:1 Langmuir fit
Details: remark: other sources report otherwise

B1: 3a4 full-length human IgG1 antibody (antibody)
chain 1: QVELVESGGGLVQPGGSLRLSCAASGFTFSDYSINWVRQAPGKGLEYVSNISYSGSSTYYADSVKGRFTISRDNSKNTLYLQMNSLRAEDTAVYYCARFKYSGGSDSWGQGTLVTVSS
chain 2: DIELTQPPSVSVAPGQTARISCSGDNLPDFYVHWYQQKPGQAPVLVISEDNKRPSGIPERFSGSNSGNTATLTISGTQAEDEADYYCSTYGYTYSYSVFGGGTKLTVL
Binder B1 has a Kd of 1 nM.
